{"source": "paper PMC10699770", "about": "(Science Advances, 2023)", "target": "full-length NAIP5 with an N-terminal Flag tag (mouse, UniProt Q9R016 1-1403)", "sequence (Q9R016 whole entry)": "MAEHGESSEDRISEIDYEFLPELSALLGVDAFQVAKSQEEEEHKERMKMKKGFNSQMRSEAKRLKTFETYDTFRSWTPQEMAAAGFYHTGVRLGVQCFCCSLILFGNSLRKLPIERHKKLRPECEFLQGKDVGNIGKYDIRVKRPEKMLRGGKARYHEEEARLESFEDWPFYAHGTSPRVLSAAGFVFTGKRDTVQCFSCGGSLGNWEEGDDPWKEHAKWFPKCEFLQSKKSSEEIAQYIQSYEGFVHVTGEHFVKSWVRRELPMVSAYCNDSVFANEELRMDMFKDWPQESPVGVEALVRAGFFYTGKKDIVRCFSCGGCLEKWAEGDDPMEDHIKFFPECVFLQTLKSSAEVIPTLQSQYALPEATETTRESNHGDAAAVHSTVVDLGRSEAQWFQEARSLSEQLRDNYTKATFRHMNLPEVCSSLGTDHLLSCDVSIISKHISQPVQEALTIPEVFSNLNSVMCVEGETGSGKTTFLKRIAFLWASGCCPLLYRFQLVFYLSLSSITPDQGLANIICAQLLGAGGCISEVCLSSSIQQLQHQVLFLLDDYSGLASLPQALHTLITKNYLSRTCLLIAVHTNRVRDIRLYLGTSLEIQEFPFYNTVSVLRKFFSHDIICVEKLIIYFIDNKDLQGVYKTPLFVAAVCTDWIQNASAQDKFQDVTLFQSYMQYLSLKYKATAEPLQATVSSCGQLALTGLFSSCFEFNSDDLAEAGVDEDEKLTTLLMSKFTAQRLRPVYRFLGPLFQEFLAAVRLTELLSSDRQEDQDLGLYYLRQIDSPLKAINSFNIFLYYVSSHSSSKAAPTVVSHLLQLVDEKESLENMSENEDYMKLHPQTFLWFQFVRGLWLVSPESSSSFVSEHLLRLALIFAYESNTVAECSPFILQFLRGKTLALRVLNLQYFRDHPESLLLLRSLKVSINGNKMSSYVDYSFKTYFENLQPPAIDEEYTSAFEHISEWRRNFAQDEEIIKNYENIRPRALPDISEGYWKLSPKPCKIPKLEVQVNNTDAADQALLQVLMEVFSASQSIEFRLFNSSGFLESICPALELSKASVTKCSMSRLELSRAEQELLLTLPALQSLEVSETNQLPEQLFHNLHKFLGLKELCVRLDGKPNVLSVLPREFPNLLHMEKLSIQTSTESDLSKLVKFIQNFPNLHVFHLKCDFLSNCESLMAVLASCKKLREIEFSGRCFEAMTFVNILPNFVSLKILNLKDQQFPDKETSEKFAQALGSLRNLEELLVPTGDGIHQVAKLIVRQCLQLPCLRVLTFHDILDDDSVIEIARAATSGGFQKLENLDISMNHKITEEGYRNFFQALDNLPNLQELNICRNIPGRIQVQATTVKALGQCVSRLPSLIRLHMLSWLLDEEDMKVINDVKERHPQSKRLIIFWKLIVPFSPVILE", "assay": "cryo-EM structure", "data": [{"binder": "full-length S. typhimurium flagellin FliC with N-terminal His tag (natural protein) MAQVINTNSLSLLTQNNLNKSQSALGTAIERLSSGLRINSAKDDAAGQAIANRFTANIKGLTQASRNANDGISIAQTTEGALNEINNNLQRVRELAVQSANSTNSQSDLDSIQAEITQRLNEIDRVSGQTQFNGVKVLAQDNTLTIQVGANDGETIDIDLKQINSQTLGLDTLNVQQKYKVSDTAATVTGYADTTIALDNSTFKASATGLGGTDQKIDGDLKFDDTTGKYYAKVTVTGGTGKDGYYEVSVDKTNGEVTLAGGATSPLTGGLPATATEDVKNVQVANADLTEAKAALTAAGVTGTASVVKMSYTDNNGKTIDGGLAVKVGDDYYSATQNKDGSISINTTKYTADDGTSKTALNKLGGADGKTEVVSIGGKTYAASKAEGHNFKAQPDLAEAAATTTENPLQKIDAALAQVDTLRSDLGAVQNRFNSAITNLGNTVNNLTSARSRIEDSDYATEVSNMSRAQILQQAGTSVLAQANQVPQNVLSLLR", "values": [{"measurement": "binding result", "value": "binds"}]}]}
